Source: patent US20070010432A1, “Heat shock protein 90 activator” (priority 2002, published 2007)
Each block holds one molecule with its values, some of them ahead of it.

Columns and labels:
[1] = biological target: T1, Yeast Hsp90 (Saccharomyces cerevisiae, UniProt P02829); test: Malachite green colorimetric ATPase assay, yeast Hsp90; assay type: biochemical
T1 construct: made in house; host or cells: E. coli
Excerpt: The activity of enzymes that release inorganic phosphate can be measured using the reaction of the cationic dye, malachite green, with a phosphomolybdate complex to generate a blue-green colour with an absorbance maximum at 610 nm (Cogan, E. B. et al (1999) Anal. Biochem. 271, 29-35; Baykov, A. A. et al (1988) Anal. Biochem. 171, 266-270; Harder, K. W. et al (1994) Biochem. J. 298, 395-401; Maehama, T. et al (2000) Anal. Biochem. 279, 248-250) as described above.
Chemicals are of the highest purity commercially available and all aqueous solutions are made up in AR water. • 1. For the full length Aha1, an assay buffer of 45 mM Tris-HCl pH 7.5, 9 mM KCl, 3 mM MgCl may be used. For the C-and N-terminal domain of Aha1 or the Hch1 homologue, an 20 mM Tris-HCl pH 7.5, 4 mM KCl, 1.2 mM MgCl. An assay buffer of 100 mM Tris-HCl, pH 7.4, 20 mM KCl, 6 mM MgCl2 may also be used. Stored at 4° C. • 2. 0.0812% (w/v) malachite green (Sigma M 9636). Stored at room temperature. • 3. […]

[2] = biological target: Human hsp90 beta protein (human) (UniProt P08238)
[3] = biological target: Hsp90 (species not stated; FIGS. 4 to 6)
[4] = biological target: T2, Hsp90 (Saccharomyces cerevisiae, UniProt P02829); test: Effect of Aha1, Aha1 domains or Hch1 concentration on geldanamycin dependent ATPase activity of Hsp90; assay type: biochemical; conditions: for Effect on Hsp90 ATPase activity (in words): FIG. 5 and 6, 20 mM Tris pH 7.5, 4 mM KCl, 1.2 mM MgCl2
T2 construct: made in house; host or cells: E. coli (if the yeast protein of the reagent list)
Experimental: Half activation is shown to be at […] Aha1. 0.2 μM Aha1 was used in a buffer consisting of 45 mM Tris pH 7.5, 9 mM KCl, 3 mM MgCl2.
2 μM Aha1 was used in a buffer consisting of 20 mM Tris pH 7.5, 4 mM KCl, 1.2 mM MgCl2.
Hch1 and truncated Aha1 polypeptides corresponding to the N and C terminal domains of full-length Aha1 were expressed and purified as described above. The N terminal domain polypeptide (nAha1) consisted of 162 aa from the N terminal MVVNNP to GNDIQV. The C terminal domain polypeptide (cAha1) consisted of the remainder of the Aha1 sequence.
(§1) Chemicals are of the highest purity commercially available and all aqueous solutions are made up in AR water. • 1. For the full length Aha1, an assay buffer of 45 mM Tris-HCl pH 7.5, 9 mM KCl, 3 mM MgCl may be used. For the C-and N-terminal domain of Aha1 or the Hch1 homologue, an 20 mM Tris-HCl pH 7.5, 4 mM KCl, 1.2 mM MgCl. An assay buffer of 100 mM Tris-HCl, pH 7.4, 20 mM KCl, 6 mM MgCl2 may also be used. Stored at 4° C. • 2. 0.0812% (w/v) malachite green (Sigma M 9636). Stored at room temperature. • 3. 2.32% (w/v) polyvinyl alcohol USP (Sigma P 1097). Stored at room temperature. The polyvinyl alcohol dissolves in boiling water with difficulty and stirring for 2-3 h is required • 4. 5.72% (w/v) ammonium molybdate in 6M hydrochloric acid. Stored at room temperature. • 5. […] Stored at room temperature. • 6. ATP, disodium salt, special quality (Boehringer Mannheim 519979). Stored at 4° C. • 7. E. coli expressed yeast HSP90 protein, purified >95% (10) and stored at −80° C. as 10 μl aliquots containing 0.5 mg of protein. Assay Protocol

[5] = biological target: T3, Human Hsp90 (Homo sapiens, UniProt P08238); test: Stimulation of human HSP90 ATPase activity by Aha1; assay type: biochemical
T3 construct: made in house; host or cells: E. coli BL21 (DE3) pLysS (stated for Aha1 only)
Experimental: Each value is the mean±Sd of n=4 ATP at 0.6 mM.
Each point is the mean±SD of n=4 ATP at 0.6 mM.
as §1, with “E. coli expressed yeast HSP90 protein, purified >95% (10) and stored at −80° C. as 10 μl aliquots containing 0.5 mg of protein. Assay Protocol” left out
Initially, the reagent was a dark brown colour, but after standing at room temperature for about 2 h, this became a golden yellow colour and was ready for use. […]
To stop the incubation, 80 μl of the malachite green reagent was added to each well and the plate shaken again. […] The absorbance at 620 nm was measured using a suitable plate reader (e.g. Victor^2, PerkinElmer Life Sciences). […]

T2 sequence (P02829 whole entry, the tested form may be a part): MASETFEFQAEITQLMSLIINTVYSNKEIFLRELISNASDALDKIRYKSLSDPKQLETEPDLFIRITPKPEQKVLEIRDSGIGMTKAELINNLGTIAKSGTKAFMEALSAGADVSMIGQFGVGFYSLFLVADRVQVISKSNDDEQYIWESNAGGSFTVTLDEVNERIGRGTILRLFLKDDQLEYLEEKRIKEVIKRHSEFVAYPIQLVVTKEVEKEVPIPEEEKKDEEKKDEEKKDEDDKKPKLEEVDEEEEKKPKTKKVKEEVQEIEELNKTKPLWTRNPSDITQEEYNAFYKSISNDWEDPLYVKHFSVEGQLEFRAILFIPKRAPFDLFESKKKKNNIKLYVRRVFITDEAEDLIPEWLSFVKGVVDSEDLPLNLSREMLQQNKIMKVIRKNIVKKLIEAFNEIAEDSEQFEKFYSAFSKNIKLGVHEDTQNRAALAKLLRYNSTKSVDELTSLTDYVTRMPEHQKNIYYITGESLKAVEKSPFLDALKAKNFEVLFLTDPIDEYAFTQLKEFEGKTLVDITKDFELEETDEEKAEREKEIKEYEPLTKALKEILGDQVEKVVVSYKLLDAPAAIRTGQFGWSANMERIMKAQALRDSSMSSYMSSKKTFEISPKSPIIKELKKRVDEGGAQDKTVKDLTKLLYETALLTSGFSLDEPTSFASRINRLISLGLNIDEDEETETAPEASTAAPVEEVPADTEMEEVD
T1 sequence (P02829 whole entry): as the sequence (P02829 whole entry, the tested form may be a part) above
T3 sequence (P08238 whole entry): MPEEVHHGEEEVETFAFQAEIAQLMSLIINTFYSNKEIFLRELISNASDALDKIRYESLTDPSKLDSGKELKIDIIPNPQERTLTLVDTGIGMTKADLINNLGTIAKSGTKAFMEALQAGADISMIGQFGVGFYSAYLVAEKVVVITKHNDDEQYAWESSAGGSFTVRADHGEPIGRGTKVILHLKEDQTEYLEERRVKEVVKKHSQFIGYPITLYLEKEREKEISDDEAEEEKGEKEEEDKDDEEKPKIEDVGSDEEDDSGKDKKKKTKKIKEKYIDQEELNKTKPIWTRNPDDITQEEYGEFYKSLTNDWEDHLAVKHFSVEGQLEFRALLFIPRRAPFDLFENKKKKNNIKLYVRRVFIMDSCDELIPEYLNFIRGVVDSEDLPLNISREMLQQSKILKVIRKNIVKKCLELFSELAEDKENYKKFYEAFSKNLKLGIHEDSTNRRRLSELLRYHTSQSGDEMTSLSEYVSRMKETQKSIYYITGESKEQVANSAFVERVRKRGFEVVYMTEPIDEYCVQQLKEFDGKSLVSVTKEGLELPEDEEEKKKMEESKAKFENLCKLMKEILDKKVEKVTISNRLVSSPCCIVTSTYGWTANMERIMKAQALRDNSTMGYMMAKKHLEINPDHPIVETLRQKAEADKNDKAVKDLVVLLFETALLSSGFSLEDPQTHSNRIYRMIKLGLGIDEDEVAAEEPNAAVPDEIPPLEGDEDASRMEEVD

Molecule: C=CCNC1=C2C[C@@H](C)C[C@H](OC)[C@H](O)[C@@H](C)/C=C(\C)[C@H](OC(N)=O)[C@@H](OC)/C=C\C=C(/C)C(=O)NC(=CC1=O)C2=O [17AAG]
Inhibition of yeast HSP90 ATPase activity (in words) [1]: potent inhibitors

Molecule: C[C@@H]1C[C@H]2O[C@@H]2/C=C\C=C\C(=O)Cc2c(Cl)c(O)cc(O)c2C(=O)O1 [Radicicol, radicicol]
Inhibition of yeast HSP90 ATPase activity (in words) [1]: potent inhibitors

ATPase activity of human Hsp90 (malachite green assay of inorganic phosphate) [2]: 2 fold
Half maximal activation of Hsp90 (geldanamycin dependent ATPase activity) [3]: < 1 µM
Molecule: Aha1 (YDR214W), full length (from UniProt Q12449)

Molecule: Aha1: Aha1 (YDR214W) protein expressed in E. coli; co-activator stimulating Hsp90 ATPase activity
EC50 ([4]; FIG. 4, text of results, read-out: Aha1 concentration for half maximal activation of Hsp90): < 1000 nM
Increase of the activity of human Hsp90 in the presence of Aha1 [5]: approximately 2 fold
Effect on ATPase activity of increasing concentrations of human HSP90 (in words) ([5]; FIG. 1, ATP 0.6 mM): significantly increase

Molecule: Hch1: homologue of Aha1, expressed and purified like Aha1
Effect on Hsp90 ATPase activity (in words) [4]: activate Hsp90 ATPase activity, but to a lesser extent than the full length Aha1 polypeptide

B1: N terminal domain of Aha1: truncated Aha1 polypeptide of 162 aa from the N terminal MVVNNP to GNDIQV (protein)
chain: MVVNNPNNWHWVDKNCIGWAKEYFKQKLVGVEAGSVKDKKYAKIKSVSSIEGDCEVNQRKGKVISLFDLKITVLIEGHVDSKDGSALPFEGSINVPEVAFDSEASSYQFDISIFKETSELSEAKPLIRSELLPKLRQIFQQFGKDLLATHGNDIQV
Effect on Hsp90 ATPase activity (in words) [4]: activate Hsp90 ATPase activity, but to a lesser extent than the full length Aha1 polypeptide

B2: C terminal domain of Aha1: truncated Aha1 polypeptide consisting of the remainder of the Aha1 sequence (protein)
chain: PESQVKSNYTRGNQKSSFTEIKDSASKPKKNALPSSTSTSAPVSSTNKVPQNGSGNSTSIYLEPTFNVPSSELYETFLDKQRILAWTRSAQFFNSGPKLETKEKFELFGGNVISELVSCEKDKKLVFHWKLKDWSAPFNSTIEMTFHESQEFHETKLQVKWTGIPVGEEDRVRANFEEYYVRSIKLTFGFGAVL
Effect on Hsp90 ATPase activity (in words) [4]: little or no effect
